Data: IntAct's records for PubMed 12713445

Legend:
dlg2_human DLG2 = dlg2_human DLG2 (UniProt Q15700)
dlg3_human DLG3 = dlg3_human DLG3 (UniProt Q92796)
Sequence of UniProt Q92796 (Q92796 whole entry): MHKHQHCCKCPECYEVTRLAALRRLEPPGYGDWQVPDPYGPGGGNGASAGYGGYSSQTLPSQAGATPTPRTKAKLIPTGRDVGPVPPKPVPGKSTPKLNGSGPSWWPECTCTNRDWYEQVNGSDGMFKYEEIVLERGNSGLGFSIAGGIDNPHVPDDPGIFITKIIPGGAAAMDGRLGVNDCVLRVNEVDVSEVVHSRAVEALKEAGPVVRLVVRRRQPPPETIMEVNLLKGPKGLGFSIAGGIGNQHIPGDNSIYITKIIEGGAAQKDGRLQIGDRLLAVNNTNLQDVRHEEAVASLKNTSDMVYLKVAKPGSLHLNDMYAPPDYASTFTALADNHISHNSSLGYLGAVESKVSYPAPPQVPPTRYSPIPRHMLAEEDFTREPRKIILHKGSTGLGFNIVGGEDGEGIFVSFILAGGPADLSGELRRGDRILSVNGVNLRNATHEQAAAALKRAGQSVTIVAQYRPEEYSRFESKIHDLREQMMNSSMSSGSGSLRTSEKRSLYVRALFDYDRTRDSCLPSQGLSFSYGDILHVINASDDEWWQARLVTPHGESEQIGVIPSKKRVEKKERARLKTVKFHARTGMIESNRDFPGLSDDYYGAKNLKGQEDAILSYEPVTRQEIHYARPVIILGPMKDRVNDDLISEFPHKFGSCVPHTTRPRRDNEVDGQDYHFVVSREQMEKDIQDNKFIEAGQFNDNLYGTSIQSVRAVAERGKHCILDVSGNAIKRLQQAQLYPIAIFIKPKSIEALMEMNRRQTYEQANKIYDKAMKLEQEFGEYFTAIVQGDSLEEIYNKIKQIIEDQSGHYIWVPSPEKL

Sequence of UniProt Q15700 (Q15700 whole entry, looked up): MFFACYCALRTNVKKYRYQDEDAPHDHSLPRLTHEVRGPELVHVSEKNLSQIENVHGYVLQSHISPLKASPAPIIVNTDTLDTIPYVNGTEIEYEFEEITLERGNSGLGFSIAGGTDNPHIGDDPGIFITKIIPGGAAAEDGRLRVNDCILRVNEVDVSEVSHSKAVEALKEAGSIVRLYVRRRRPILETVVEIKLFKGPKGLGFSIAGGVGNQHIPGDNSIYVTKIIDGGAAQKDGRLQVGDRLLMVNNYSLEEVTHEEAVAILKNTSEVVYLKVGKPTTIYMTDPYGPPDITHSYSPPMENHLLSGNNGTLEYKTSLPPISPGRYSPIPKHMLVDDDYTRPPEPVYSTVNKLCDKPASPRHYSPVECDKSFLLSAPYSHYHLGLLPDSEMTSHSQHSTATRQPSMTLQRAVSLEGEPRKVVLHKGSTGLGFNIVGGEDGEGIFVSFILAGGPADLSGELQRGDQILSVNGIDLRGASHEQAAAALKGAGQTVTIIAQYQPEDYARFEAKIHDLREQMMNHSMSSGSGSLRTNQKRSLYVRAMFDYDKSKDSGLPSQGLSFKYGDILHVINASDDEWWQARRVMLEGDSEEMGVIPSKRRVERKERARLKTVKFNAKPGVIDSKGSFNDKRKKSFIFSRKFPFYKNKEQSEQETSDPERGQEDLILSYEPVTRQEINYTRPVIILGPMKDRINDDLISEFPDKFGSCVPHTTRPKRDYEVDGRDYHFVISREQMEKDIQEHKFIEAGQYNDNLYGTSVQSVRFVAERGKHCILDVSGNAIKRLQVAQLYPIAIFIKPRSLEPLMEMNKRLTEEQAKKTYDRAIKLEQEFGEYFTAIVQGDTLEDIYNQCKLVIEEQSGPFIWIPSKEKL

Substance: Low-density lipoprotein receptor-related protein 2 (Homo sapiens), P98164 S4653V;V4655S
- effect of a mutation on the interaction (dlg2_human DLG2): disrupting interaction strength
- effect of a mutation on the interaction (dlg3_human DLG3): disrupting interaction strength
